This test deals with T1, ISLR (BC022478) (human, UniProt O14498 19-428).
T1 construct: whole, on cells; also called Immunoglobulin superfamily containing leucine-rich repeat protein
T1 sequence (looked up): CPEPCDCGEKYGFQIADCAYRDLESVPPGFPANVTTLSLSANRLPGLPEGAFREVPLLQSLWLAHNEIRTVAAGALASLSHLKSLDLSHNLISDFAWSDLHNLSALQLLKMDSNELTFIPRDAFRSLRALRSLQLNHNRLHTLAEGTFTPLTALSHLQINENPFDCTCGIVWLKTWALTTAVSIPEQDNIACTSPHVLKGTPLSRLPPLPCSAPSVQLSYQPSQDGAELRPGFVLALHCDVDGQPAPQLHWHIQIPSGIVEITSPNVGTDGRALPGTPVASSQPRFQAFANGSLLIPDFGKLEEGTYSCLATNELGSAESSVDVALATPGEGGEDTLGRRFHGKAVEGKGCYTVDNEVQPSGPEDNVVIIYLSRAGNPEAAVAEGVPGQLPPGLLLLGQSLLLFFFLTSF
Briefly: Retrogenix cell microarray, fixed HEK293 cells, 2 ug/mL antibody. The procedure: This human cell microarray methodology has been previously described in the literature (Freeth, J. et al, SLAS Discovery, 25 (2), 223-230, 2020). Primary screening was performed on slides arrayed with fixed HEK293 cells with each spot of HEK293 cells expressing either a unique protein from the cell surface-ome, a cell surface tethered human secreted protein, or a heterodimeric human cell surface receptor. In total, 5,528 unique gene products were represented in this primary screen (4,103 human plasma membrane proteins (+some untethered secreted proteins)+1,425 cell surface tethered human secreted proteins). Briefly, slides containing fixed transfected HEK293 cells were overlaid with a solution of test antibody (2 μg/mL), incubated, and washed. Binding was assessed using AlexaFluor647-conjugated anti-human IgG Fc detection antibody and fluorescence quantitation on ImageQuant. […] Located in the ER, off-target binding to CRELD2 was of less concern. Nectin-1, FGFR2, and ISLR, on the other hand, display broad tissue expression profiles. Cross-reactivity to these proteins is undesirable because binding to these targets might have a significant impact on pharmacokinetic and biodistribution profiles of the molecules. This off-target binding was subsequently confirmed by flow cytometry on live HEK293 cells transiently expressing these ‘off-target’ proteins identified in the primary screen.

B1: VGFB78 (antibody, human IgG1, lambda, L234A L235A, V domains shown)
VH: EVQLLESGGGLVQPGGSLRLSCAASSFTFYNYDMTWVRQAPGKGLEWVAGIGTSGTDMYYADSVKGRFTISRDNSKNTLYLQMNSLRAEDTAIYYCAKDYYYYGMDVWGLGTTVTVSS
VL: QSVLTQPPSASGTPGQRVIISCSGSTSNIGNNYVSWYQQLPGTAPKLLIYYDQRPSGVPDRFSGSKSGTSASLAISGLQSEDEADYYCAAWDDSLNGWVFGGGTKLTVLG
notes: human IgG1 (L234A/L235A/D265S)
As for B1, the binding result is “binds”.
